# Experimental data from the NTF2 design screens of Basanta et al. (2020).
# Test: protease stability score; higher = more stable; yeast display proteolysis, trypsin and chymotrypsin;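 also: log10 excess protease needed over predicted unfolded state with 0 meaning unfolded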
row,Sequence,protease stability score
1,DNETVDEALKAFNKNDERNMMRLADENAEMEIGDTEYHGQEQVQTLLQKLNQQVDHREFHSIETEPNRIRVDYRAVFNGRDIRVHVHLEFENGRLTRVRFDVRDPRQQKHLQDLLK,0.344
2,DNEVAHNIMRAFKQQWRGNEDKALELMDPNAEVHVGNKQIHGMEEWVRRTAHKARRARVKVSRIDVTVHNGKVRIKMNYTVSVNGKPISWHADITVQADNGRAKHITQQVPEDLEERERG,0.112
3,DNKDQARRLLNELRKAMKQNDEDRMRQLMDPNARATYGDKTVHGREELAERIIKEVKRADHVDLQVDDIKTQGNKLTVEVTIRIDVNGKTINTRYVLYAEVSNGRFNIRQIHQQ,0.544
4,DNKERAEDWFRHMTEIWKQNDPDELQNNADPNVRVDVGDKQVQGRDKYKTQMETFKNRADHISIELKNIDVQGERIVVNFEATYDVNGRKEDKTAHILARVHNGHIVIKEVKNG,-0.073
5,DNQDARKLQEYFRNMVTGNEQRAMQYMDKDVTVHVGDKVFHGMERAVKTLVQRLKEIRVHYKFKQVSVQGNKVNIKADVEEDDNGRPETKRLEMDVEWHNGKVKKVVIKNDR,1.49
6,DNRLQRWADRWLEVVETGNPEEIRKLVDKDVDVEIGDQQYKGQDHLSKQWKDFHKHAKLEIKDYKIDVEGDRLVINVDAVYNVNGQPRRNRYNLEFKLHNGKVRSVHFRIDPDEQRKMDS,1.44
7,DNSELAQQRWRDLRKAISENDPKTARDLFDPNVRIEVGEKTLHGRKAASDFVKEIKKDYDHAYLQVTDVDVQGEHVHAHVVLHAEHNGKTTSVEMEMEAVFQGDKLRVRMMRKS,0.641
8,DNSVKKIVEEFWKAVKHGDPDKLRELADPNAKFDVGDKVLHGRDRAAKFLHDQHNNARFDITSLRIRVTNGRADIDVKLHVEHNGEPKTSSAKVIVRVRNGRMTELKIRERS,0.637
9,DNTHLRMMEQLLKNRSTGDERKVRENADKHVKIDVGDKRLHGREHLQKQQESERTQADVEIQVQTIHDHNGQIVMQFEITVNVNGRPERDTWTLVAEADNGRLKKLSLDLDPDKLKTMES,0.327
10,DNTIKRKFHDLIRAWQTNDENRYMQLFDPNVKIRVGNQQFHGREDWSKWFREQMTHLRNDFTVKSLEVDGDKVVADIVAVLSINGRPNKMRVDYRMTVHNGKIKSAEMRFSHEIETKIEQ,1.46
11,DPKKAFKVAEEAMKYFVKGNVDELKKILNPDGTARVADHETKGVEEIMKLLQRMKKHGVQVEVKEVRREGNQVEVHTVYHDGDETATLTVQYKAQNGKVDHIKVQYNERMKKIWEKG,1.2
12,DPKKAHEVAEEVMKAFVNGNDEQVKRLLKPDVTAKVADRETQGPEQIVRYLRRFDKLGVQYHEEETRKEGNRVEVHTKYKKGDQEATVTVVYEADNGKVDRIEVRYDEEMKKLFEKG,0.279
13,DPKKDLKVAEEVLKAMYSGDDEKAQKLVDPSVKAQTGDQKYHGTDDIKKMVKTFKDYGVEHEEKETKVDGGYAEVVIQAKIGNDEVEAKWRVYAKDGRVDYVQADITEKLTKLMQHG,-0.445
14,DPKKFHKAAVLLAQAAMNGDYKRVVELYKPDARLTLVDQEVQGQEQIKKHAKKFYDRGKRFQFKRVEVTGDYVKLQFDIEVGGTRVTFEARVHAQDDTVDEYELRFDDTAREMQERG,0.073
15,DPKKLKEAVEKVIQAMEKGNVEEVVKLYKPDVKFVLGDQEFRGREDVKKQAKKFYTKGARFQLRKVEVKGDKVEVVVDVEVGGTRKTFKFTLKVEDDTVDEYEIRFTEEAKKAKEKG,0.839
16,DPKKLYKVAIRVVRAAVSGDVEKVVKMYKPDGKLTLGDQELRGREQIKKYADKFYRKGKRFQADHIRVTGNRVEVIMKFTLGGQTVTFQFYIKLKDDQVDEYEFRFNEEAEKMMRTG,0.276
17,DPKKMKEIADKMAKAVLNGNEEEVKKFGAPNVEAEVADQRTQGVDEIVKMLQKVKRMGMEVHTEEKREEGDFIEVHTKYRRGDTEATMTVQYYADNGKVKKIKVEYDRDAKKLFKHG,0.232
18,DPKKVEDVAKKVAKAFQDGNEEELKKHLDPTGRAKIADEETQGIEQIIKKLKKVMKLGVQVENKETRYEGNRVEFHTEYRDGDKQATMTVVYHADNGKVKEIRVQYDRDAKEMYEKG,0.658
19,DPKRTVKVAEEAAKILYNGDSDKAKKVFKPDLRVKIADRETQGVEQIVKELEKFQKIGVERETKEKRTEGDKVQFHTVYRNGSDQAKMTVEYQAKDGKVDRIQVDYDEKAKKIQEDG,-0.407
20,DPKRVRQVAKEVAKAFLNGDKDKVKKYGDPNVKAKVLDEETQGVEQIMRELEKFMKLGVQYETKEVREEGDYVEVHTEYRDGDTTAKMTVIYKARDGKVEHLEVHYDRDARKIFRKG,0.144
21,DPRKVKDAVRKVVEAMMNGDVEKIVKLYKPDGELYLGSQKVRGQEQVEKEAKKFYDKGARFQVKEQHVKGDNATVVFDMTANGQTVTFQFEIKVKDDTVDKYEVRFTEKADELRRKG,-0.136
22,DPTELLKYAEKLLEALMKGDSELATKMGKPDVEVQTGDQKYKGQDDLRKVVKKIKDYGVENKIDETEKDGGQVKVKIVARIGDREYTFTWVAEAENGKVRKVQLDIPEDLEKDLKHG,0.739
23,DPTKALRLADTALRAFANGNSDQVKQHLKPDVRARVVDEETQGVDQIVKQLQHFVKVGVQRQVDEVRHEGNQVEAHTQYQVGDNQATMTVVYRAQNGKVDEIEVRYDERAKKIFEQG,-0.115
24,DPTKVDHVARRVLEYMVKGNAEEVRKMVKPNAEAQTGDQKYKGQDEIHKMVKTLKDYGIEVKRDEVRVDGGHAQLKIRANIGDRTYTARWQVEAKDGKVDRIQMDISEDLKKAIKHG,-0.022
25,DQDAARIYKHQVEAIKTGNPSKVMELADPNVEFHVGDRVITGREQLRNDVDRHKKQMRVEIRIEDITDQGEFANIRANVTIDVNGRPKTSRVNMRVFAHNGKVKSQDFQTSQ,0.52

row,Sequence,protease stability score
1,DQDAIRRLDEALRAEETGNEKQLKDLFDPNVEFVIGDDEYHGMDSYAKDVRRRKQNMRDHIEHVDMHDNGSQIHIRYRQVANINGTPVKYEITATAEVHNGRFKRMEYRIDEDEQRKLDS,0.026
2,DQDALRKWEEILKAMETGDREKVAQLVDPNARVVYGDKEVRGRESIRKRVKEIRDELRFSMELKRFDDHNGRASATLKMNAEHNGQPIHRTASVEIEVQNGRIKSMEIQLRG,0.062
3,DQDAQRQLREAMKDEESGDHRSIRENIDPNAKLDVGDKDVTGRENVAKEIKHQVDESRVKIDHYRMEVHGDRVTVTFNAVETHNGQPRRKTYQVIFKIHNGQFKKIMMRTSQ,0.546
4,DQDEIRQNARDLATGDPDRAREQADKHVRVEIGEKTLHGREKLEEWMKHIHERIDHNRVHDIQIDNGRVEASVNVDINGKKVVFTIVAEFDNGKIQRVQVDVRDHEVQKVMEEIDS,0.821
5,DQDEQRHQMEEVRKAFQRGDNEKFERLADPNVRYQVGDKTYHGREQASKALSDIREQVDHLEIKDYKIHGNKLDINVVVDINGEKHEYRIIVHIHNGRITRYQFQST,0.73
6,DQDHEQKMMTRVAHAFDNGDDQSLARLMDPNVSVTVGDKSVHGRERVRELVNEWRHRVDHIKLDRVEHQGNKAKFHITVEHNGERDQVDLEIEARNGKVKNVVLHRP,1.26
7,DQDHLRELVHTFNRLLEQGNFDELANMFDKNARVDVGDKSYHGQEQVRTWFKHLRQRVDHFHVKHYKVRGDEATIHVIMDVNGQKRNVTVRLSFSNGRADHIQIDPDHKQELDK,1.56
8,DQDLHTRFKTWVENLHEGDEDNLKSLADPNAKIKVGNKEYHGMDEFKKDQKRRRDQMRIQIEIDSVTVQGNKATAEFEMTLDVNGKPVRMRFRVQFEVHNGTIQSWEAQVSPEQQEKLDR,0.967
9,DQDQMRKAEQAMRAEQKNNKEELDELFDPNVEVEVGDFNVEGREEMNKEVDDLKKQARFHWSLHHVEVRGNRMHFKLRFEIQVNGQPRKNTANVEIEAHNGKFTSKTNRIDPRFVKTLLG,0.55
10,DQDRLEEVRRRMTTGNPDDLRNLMDEDVTVQYGDKEVHGRDEAVDRLEKLLRQVDHLRIDSMDAHGDEFNVHLSAVVNGRQVNFVVSLRIHNGKIKHFMQQATDEDQQKRLEHAWD,1.23
11,DQEAAEILKRFVKAIKTGDPDEAKEQMDKDVKVRVGDKVIHGREEVAKEVEQTNRNLRLEVEINDYTVDGDKVTIRMRIVTNENGRPDVKTVKVTAHAHNGRLVHLEIQSDS,0.778
12,DQEAAQDMRQWINAWNQNNPRKLRKLVDENARINIGEWHLQGRERIHKFAEKLIHEMDVQFSIKSFHVQGNKIKANLRIVANINGRPHEVNANLVVIVHNGHIKEIKATLDEDQIRHLNS,0.648
13,DQEAHRVFNEFIKAITTGNPDRARQLADPNARFQVGDKRYHGMERYASTLKQQQNKMTQSLRVRDVDVKGDKIKVDAQSEMNHNGQPRRSQHNIDVNIQGDKIKRVRYTDDK,-0.454
14,DQEDKDSLEQILHTGDWVDAAKSADPNAQAEVGDKTWTGREQVEKVMKRLRDDIDHQEVKSVEIDGDKMHVDLTAHINGERMRITIEVKYSNGHLVKVVVKATDKEVEKHLKKLLD,1.54
15,DQEDLKHLANVLRTGDWDRLRDLFDENARVKIGDKEVHGKEDAKKLAEQLKRSIDHMKISTWSITNGVLEMHFRVNVNGKTYEVQMELHAHNGRIKSMELHYRNREVKHVIKEMLD,1.08
16,DQEDLRRIAEQVNRAFEKNDHDLMRRLADKDVKFHVGEKELTGRDNLARFLQEFRRRADHITVKSFDASNGRVNADIEIDVNGQKIKLHMQAEVHNGHIKHVRFHYTDEQQLRDFLS,1.24
17,DQEDQQRLAEQFMRALDEGDSDTIAKLLDPNARVIVGDKTVHGHRHARRVIHEFRNRVDRVDVRTVEVDNGHVRIEAVLNFNGQRTRFVYHLKIDNGRFKEMQLRSK,0.892
18,DQEEAEKVMKQWMEAVQKGDEDTVRKLYDPNVEWINADTKEQDVEQFRKAIKKAKDKGVEFQVRKAKVEGDRVQMHYDVRIGNETVTFTVEMDVQGGKVEWLRVKVDEKARKALTKG,1.22
19,DQEEAERVVKRAIKALENGNSKELKDLGKEGVEYEFGDKKIHGPDALVKQFRTLQKKGVEMEFKEHHVEGDEAHTKVRYRNGDKENEATITATVKGGRIDRVQVNVPETIRKIVKHG,-0.076
20,DQEEAKEVAEKVMKAVENGDEKKLKDLIDEGVKYEVGDTQQHGPEVAVKVVQYLQKKGVRLEFKEVQHHGNQVHTKIEYQNGDETDTVEATAEVKGGKIDQVQIHASETVVKWIKHG,0.088
21,DQEEAKKIVDKMLKAVENGNEEDLVKMGADGVEYRAGDKKAHGPEAIQEVVQYLKRKGVEVEVKEVQVKGDKAQTHVDYKVGNETMTATANATLKGGKIDRVEIDFDETLKKVIKDG,0.154
22,DQEEAKKVAEQAIKYVENGNLTELMDMLKDGGEYQVADDKKHGKEVLYKLVKILQRLGVEVEFKRTEIEGNTVTTDVDYRLGDEEATAQAHAEVQGGRIDRVQIDADEHLKKWIKHG,0.606
23,DQEENQKIAERIVKIIQTGDNEKAMKQVDKNVRIRVGEKEYHGRESAREHIREQKEQFDHATVDDMKVQGNKIVLKMRLDVNGVDMDVVIKVTVKNGTIKELHVEYRDREDQQKIES,1.09
24,DQEEVEQAKKFVEAQKSGDPDQLNDLADPNVELEIGDQELHGREDLHDWANHQNKHMRMEVRDVKAQDKPNHVEVHIRFVINVNGKPRDTTVEVDFSAENGHIKKIKFQIDHHELRKLEK,-0.154
